Results published in patent US20250289897A1, “LEPTIN RECEPTOR AGONISTIC ANTIBODY AS MONO OR COMBO THERAPIES TO TREAT OBESITY” (ELI LILLY AND COMPANY, priority 2024, published 2025).
Blank lines part the entries; values can stand above or below the substance they belong to.

Columns and labels:
[1] = target: neonatal Fc receptor (FcRn) on FcRn Affinity Column Gen2 (Roche, Cat #09430857001) (UniProt P55899); experiment: FcRn-HPLC (Roche FcRn Affinity Column Gen2), pH gradient 5.5 to 8.8 over 90 minutes
[2] = target: human FcγRI (CD64) extracellular domain (human) (UniProt P12314); experiment: SPR at 25 C (Biacore T200), antibody captured on Protein A chip, FcγR ECD as analyte; average of 3, SD 1.3
[3] = target: human FcγRIIA_131R (CD32a) extracellular domain (human) (UniProt P12318); experiment: SPR at 25 C (Biacore T200), antibody captured on Protein A chip, FcγR ECD as analyte, steady state; average of 3, SD 0.01
[4] = target: human FcγRIIA_131H (CD32a) extracellular domain (human) (UniProt P12318); experiment: as above
[5] = target: human FcγRIIIA_158F (CD16a) extracellular domain (human) (UniProt P08637); experiment: SPR at 25 C (Biacore T200), antibody captured on Protein A chip, FcγR ECD as analyte, steady state; average of 3, SD 0.02
[6] = target: cynomolgus monkey LEPR, full length, on HEK293-STAT3Luc-cmLepR2 cells (Macaca fascicularis); experiment: flow cytometry on live HEK293-STAT3Luc-cmLepR2 cells, AF647 anti-human IgG; average of 4 runs
[7] = target: human LEPR, full length, on HEK293-STAT3Luc-hLepR1 cells (Homo sapiens) (UniProt P48357); experiment: flow cytometry on live HEK293-STAT3Luc-hLepR1 cells, AF647 anti-human IgG; average of 4 runs, SD 331, R^2 0.50
[8] = target: human LEPR, full length, on HEK293-STAT3Luc-hLepR1 cells (Homo sapiens) (UniProt P48357); experiment: cell-based or functional assay
[9] = target: cynomolgus monkey LEPR, full length, on HEK293-STAT3Luc-cmLepR2 cells (Macaca fascicularis); experiment: flow cytometry on live HEK293-STAT3Luc-cmLepR2 cells, AF647 anti-human IgG; average of 4 runs, SD 0, R^2 0.60
[10] = target: human LEPR, full length, on HEK293-STAT3Luc-hLepR1 cells (Homo sapiens) (UniProt P48357); experiment: flow cytometry on live HEK293-STAT3Luc-hLepR1 cells, AF647 anti-human IgG; average of 4 runs
[11] = target: neonatal Fc receptor (FcRn) on FcRn Affinity Column Gen2 (Roche, Cat #09430857001) (UniProt P55899); experiment: FcRn-HPLC (Roche FcRn Affinity Column Gen2), peak width at 50% peak height
[12] = target: Mutant human LEPR-A409E, on HEK293 STAT3-Luciferase reporter cells (human) (UniProt P48357); experiment: cell-based or functional assay
Chain of Mutant human LEPR-A409E, on HEK293 STAT3-Luciferase reporter cells (human) (P48357 22-1165 A409E limits assumed): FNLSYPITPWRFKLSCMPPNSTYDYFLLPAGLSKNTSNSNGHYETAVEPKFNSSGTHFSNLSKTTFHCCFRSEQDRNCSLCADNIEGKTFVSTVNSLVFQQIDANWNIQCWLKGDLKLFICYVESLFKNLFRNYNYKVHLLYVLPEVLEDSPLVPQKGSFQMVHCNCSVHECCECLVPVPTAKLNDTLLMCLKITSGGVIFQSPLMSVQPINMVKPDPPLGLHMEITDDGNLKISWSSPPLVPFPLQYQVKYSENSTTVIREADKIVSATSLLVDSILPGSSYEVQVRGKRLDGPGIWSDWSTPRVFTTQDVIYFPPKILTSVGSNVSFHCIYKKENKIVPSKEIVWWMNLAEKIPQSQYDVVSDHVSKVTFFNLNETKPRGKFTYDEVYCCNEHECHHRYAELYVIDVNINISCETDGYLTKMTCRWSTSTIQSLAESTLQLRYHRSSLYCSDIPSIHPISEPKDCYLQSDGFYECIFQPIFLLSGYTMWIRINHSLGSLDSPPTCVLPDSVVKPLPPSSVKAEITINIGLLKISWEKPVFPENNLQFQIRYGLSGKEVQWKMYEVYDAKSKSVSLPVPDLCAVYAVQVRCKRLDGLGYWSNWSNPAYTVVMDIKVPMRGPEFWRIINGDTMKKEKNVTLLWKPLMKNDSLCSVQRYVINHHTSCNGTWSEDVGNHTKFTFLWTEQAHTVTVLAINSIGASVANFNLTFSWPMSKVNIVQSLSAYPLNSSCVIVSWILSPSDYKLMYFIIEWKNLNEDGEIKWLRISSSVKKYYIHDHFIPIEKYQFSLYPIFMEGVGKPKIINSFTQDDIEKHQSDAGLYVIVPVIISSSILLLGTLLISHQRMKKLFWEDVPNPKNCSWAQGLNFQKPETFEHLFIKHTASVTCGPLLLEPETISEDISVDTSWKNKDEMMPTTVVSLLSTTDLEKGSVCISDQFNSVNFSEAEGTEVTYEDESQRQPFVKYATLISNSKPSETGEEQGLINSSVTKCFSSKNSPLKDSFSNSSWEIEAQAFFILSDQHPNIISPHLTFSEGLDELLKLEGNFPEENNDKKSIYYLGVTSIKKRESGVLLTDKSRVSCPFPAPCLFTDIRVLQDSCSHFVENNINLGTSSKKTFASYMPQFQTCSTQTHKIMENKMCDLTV

Chain of human LEPR, full length, on HEK293-STAT3Luc-hLepR1 cells (Homo sapiens) (P48357 22-1165 limits assumed): as the sequence (P48357 22-1165 A409E limits assumed) above, with E388A counted along it
Chain of human FcγRI (CD64) extracellular domain (human) (P12314 16-292): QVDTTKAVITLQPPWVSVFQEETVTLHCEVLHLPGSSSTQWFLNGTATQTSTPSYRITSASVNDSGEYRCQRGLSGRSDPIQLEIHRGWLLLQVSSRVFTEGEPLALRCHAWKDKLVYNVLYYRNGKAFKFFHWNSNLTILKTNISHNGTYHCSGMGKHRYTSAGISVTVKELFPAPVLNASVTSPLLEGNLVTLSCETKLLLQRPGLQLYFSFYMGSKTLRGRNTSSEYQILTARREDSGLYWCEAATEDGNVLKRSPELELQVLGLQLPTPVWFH
Chain of human FcγRIIIA_158F (CD16a) extracellular domain (human) (P08637 17-208): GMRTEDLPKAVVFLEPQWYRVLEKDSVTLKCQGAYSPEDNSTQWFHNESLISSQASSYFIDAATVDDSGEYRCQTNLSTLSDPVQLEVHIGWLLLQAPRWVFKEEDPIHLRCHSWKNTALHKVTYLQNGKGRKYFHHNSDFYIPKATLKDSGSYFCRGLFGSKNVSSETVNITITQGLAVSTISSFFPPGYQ
Chain of human FcγRIIA_131H (CD32a) extracellular domain (human) (P12318 34-217): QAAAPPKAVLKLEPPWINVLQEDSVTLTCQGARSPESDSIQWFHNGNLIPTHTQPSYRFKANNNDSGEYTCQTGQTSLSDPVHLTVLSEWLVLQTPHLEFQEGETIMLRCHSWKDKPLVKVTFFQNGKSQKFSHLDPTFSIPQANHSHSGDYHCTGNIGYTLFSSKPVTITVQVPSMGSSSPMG
Chain of human FcγRIIA_131R (CD32a) extracellular domain (human) (P12318 34-217 H167R): as the sequence (P12318 34-217) above, with H134R counted along it

Retention Time [1]: 88.9 min
Substance: Briakinumab (antibody)

Kd [2]: 0.0619 nM
Kd [3]: 530 nM
Kd [4]: 520 nM
Kd [5]: 860 nM
Substance: IgG1 positive control (antibody)

Bottom (gMFI) [6]: 69 gMFI
Top (gMFI) [6]: 131 gMFI
EC50 [7]: 409 nM
Maximum RLU, pERK1/2 AlphaLISA (baseline 29762.5) [8]: 27300 RLU
EC50 [9]: 727 nM
Bottom (gMFI) [10]: 148 gMFI
Top (gMFI) [10]: 293 gMFI
Substance: IgG Isotype control (antibody)

Peak Width [11]: 1.9 min
Retention Time [1]: 69.4 min
Substance: Ustekinumab (antibody)

Maximum RLU, pERK1/2 AlphaLISA (baseline 29762.5) [8]: 138000 RLU
Top (RLU), STAT3-luciferase reporter (projected by the fitting software) [12]: 259000 RLU
Substance: recombinant human leptin protein (SEQ ID NO:27) (from UniProt P41159 22-167) (ligand)
